Laboratory results published in the DeepSol protein solubility set.

Test: soluble on expression in E. coli; label from the status in PepcDB or PDB records

Sequence	soluble on expression in E. coli
MSSETITVERSGKVHHAEGDAARLDAYIPSECPQNHAANLLHLPNGDVLCVWFGGTQEGIADISIYMSRLVKDSGSWSKAAKLSEDATRSEQNPVLFLAPDNVLWLLYTAQKSGNQDTAIVRYRQSTDLGATWGEIGTLLDQPGTFIRQPITVLENGDWLLPVFYCRVQPGEKWVGNDDDSAVKISSDQGKTWREYPVPNSTGCVHMNITPLQDGTLLALYRSRWADFIYQSRSTDGGKTWSEPVATDLPNNNSSIQVTTLKNGHLALVFNHMSAADATDRRLSLYDEIEDEEDKASGAKMPEVQAGDRSAFWGAPRAPMTLAISEDGGKSWPYQRNIEVGDGYCMTNNSTEKLNREFSYPSVKQAPDGKLHVAFTYFRQAIKHVVVSEEWVKAGLEHHHHHH	not soluble
MMKKPLLVLTALSLSLSAILSPLPATAALPLSVNGEQIPSLAPMLEKVTPAVVSIAVEGTQVSRQRLPDQFRFFFGPDFPTEQLQERPFRGLGSGVIINADKGYVVTNYHVINGAEKIRVKLYDGREFDAELVGGDEMSDVALLKLNKAKNLTEIRIADSDKLRVGDFAVAIGNPFGLGQTVTSGIVSALGRSGLNIENFENFIQTDAAINSGNSGGALVNLNGELIGINTAILGPNGGNVGIGFAIPSNMMKNLTDQILEFGEVKRGMLGVQGGEITSELADALGYESSKGAFVSQVVPDSAADKAGIKAGDIITSLNGKKIDTFSELRAKVATLGAGKTITLGVLRDGKNQNIDVTLGEQQNAKTKAESLHQGLSGAELSNTTDSDPIQGVKVTEVQKGSAAESYQLQKDDIIIGVNRKRVKNIAELRAIMEKSPNILALNIQRGERTLYLVVR	not soluble
MGVPMGNGDCGAEFKCPPNFHKSNRVNGVWCIKVYPGNMTWWEAERECRCTIKGGHLSGIESNSEKRYVEEQTLSILDDKNIKNGAVWLGAYRRKECPSGKVSSDSICHDEKTFQFTDQHTCKTLIFQDWAANQPTNNAGDDCAVLLASTEASGSNSEASGKAAVKNCLHVQGTTPILSSVGFVCGVKAAQEGGNYGGYGGGDFMVIGAAKPKH	not soluble
MILPNPLARRLFLHLHALAEPPTGPAKGEALLALIDRLGFVQIDSISTVARAHHMILFARRQAYRPEALDRLLAQRHLFEHWTHDAAVIPARFFPFWHHRFRRDRPRLLARWRGWQREGFEEQFDAVLARIAESGPVSAAEVGEEEERGTGGWWDWHPSKAALEYLWRVGELSITRRDSFRKVYDLTSRVIPSGWLAMDPGDAATIHWACSEALDRLGFATSGELAAFWAAASPAEAQAWCHDALARGEIVEVRVEGADGSLRRSYARPEVAALAEAAPDPSPRLRILSPFDPVLRDRARAERLFGFRYRIEVFVPEAKRTYGYYVFPILEGDRLIGRIDMRAHRESGSLRVRALWPEAGVRLGSRRLGRLGAELDRLAQFAGCDQVKFEPDWLRETLPEGSVAGDLEHHHHHH	not soluble
MTAWLLSLALNLPFLGGPQEYQILVALGCSAPRHVQNGYREMLAHEVLPRLAEKVTTTQVRLTLAPITGRSYTAPARVLETPNPLSTPRFQLEEAKKTFQKEALRTFDELRKRAAAECSRGTEIIGALKAAGERARKPGRILVLAHGFEQSELMNLYDYRLKLEKREVRQGLLQRVKARLGLPNLKDQEVCIAGITAGNDNNANARLTTSIKAFWEELIQASGGRLVGYGTTPRVCPFL	soluble
SLVTSLKGLWTLRAFGRQPYFETSGGGSGGGSGGGSGGGSGGGEYNLTTTEVVMENVTAFWEEGGTPVLKDINFKIERGQLLAVAGSTGAGKTSLLMMIMGELEPSEGKIKHSGRISFCSQFSWIMPGTIKENIIFGVSYDEYRYRSVIKACQLEEDISKFAEKDNIVLGEGGITLSGGQRARISLARAVYKDADLYLLDSPFGYLDVLTEKEIFESCVCKLMANKTRILVTSKMEHLKKADKILILHEGSSYFYGTFSELQNLQPDFSSKLMG	soluble
MTLHKERRIGRLSVLLLLNEAEESTQVEELERDGWKVCLGKVGSMDAHKVIAAIETASKKSGVIQSEGYRESHALYHATMEALHGVTRGEMLLGSLLRTVGLRFAVLRGNPYESEAEGDWIAVSLYGTIGAPIKGLEHETFGVGINHI	soluble
MLDSYPGHFLPNTEAPTEEEALIALLALGGYDPDNMDGKPLTMESAVEILRKDGSALASLEEETILNLKETYVNSVGLLGKYVPKVYNGDILFFRSTVIPDWFDPISPNTWLNYLDGQIVQHDIDCRHKDLCQPGPLTEIGQVLAKYLQNKKGVSRV	not soluble
MGSDKIHHHHHHMPPLSIPADQYLRLSDKSQVRCYRSHFSDRMEMLAPPKNVAAYLDHHQGWFQRCAAPMEVKALDDQSYLLTLGRFGNFGFEVEPCIGLKLLPQQQGLYQIINVDLTHQDLPLCDHYDVDFKAGLKLEPSETEASNTVQQTTIVNWDLDLSVWIQLPKVITLLPDGLVQTSGDQLLRQVVRQISRRLTWKVQEDFHATHGLTCPPRRHAAF	not soluble
MGSDKIHHHHHHMYYRPADGHGLPHNPFNAIVSPRPIGWISTRGEGGGDNLAPYSFFNAVAYEPPQVMFSSTSAKEDRGDTKDSVANIRETGVFCVNIVEYAARDAMNETSGPWPATEDEFQRAGIERADCTEIPCSRVASAPANLECRVTQIIKLEGAHNFAVFGEVVGVHIRDDVLVDGHFDVTRFNPLTRMGYRDYSVIRDVFSLKRPGE	not soluble
MTTAIQYQVIPLADREHSNKVASILENKYKTATNKRITLNERFGVLEKGYTIQATEPETVKNDSDVFFVVHDRNLNSKKEFVENYLAKNPIVNSPEKVFEEEDKENAPTKKAVLKPSSTDEKKLTSSDIYIQEITRSILQSV	not soluble
MEGQSGRCKIVVVGDAECGKTALLQVFAKDAYPGSYVPTVFENYTASFEIDKRRIELNMWDTSGSSYYDNVRPLAYPDSDAVLICFDISRPETLDSVLKKWQGETQEFCPNAKVVLVGCKLDMRTDLATLRELSKQRLIPVTHEQGTVLAKQVGAVSYVECSSRSSERSVRDVFHVATVASLGRGHRQLRRTDSRRGMQRSAQLSGRPDRGNEGEIHKDRAKSCNLM	soluble
MAGVTKEQIAKAKEWDLLSYLQAYEPQELKKSGPREYCTRTHDSLKISNGKWCWNSRGIGGRTALDYLIKVRGMDFVGAVETLCGYCAPPPEKAPPIKEKQPKPFRLPQASRCASAVVGYLQDRGIDPELLGVCMEAGILYESCKYQNCVFVGRDTAGNARAASLRGTRDGFRMDVEGSDKRYSFCLPAGKADCPRLAVAESPIDALSLATLVKLSGGEPRDSHYLSLGGTGPRALIQFLHDHPHVTQVSLCLDNDKAGLEGMERLTQEIQNDAELSRRVKLVYPNPPKQGKDYNEFLCTHVKAVRTAQRQRDAAR	not soluble
MGYDVTRFQGDVDEDLICPICSGVLEEPVQAPHCEHAFCNACITQWFSQQQTCPVDRSVVTVAHLRPVPRIMRNMLSKLQIACDNAVFGCSAVVRLDNLMSHLSDCEHNPKRPVTCEQGCGLEMPKDELPNHNCIKHLRSVVQQQQSRIAELEKTSAEHKHQLAEQKRDIQLLKAYMRAIRSVNPNLQNLEETIEYNEILEWVNSLQPARVTRWGGMISTPDAVLQAVIKRSLVESGCPASIVNELIENAHERSWPQGLATLETRQMNRRYYENYVAERIPGKQAVVVMACENQHMGDDMVQEPGLVMIFAHGVEEI	soluble
MDEIWFAGIDLGGTTIKLAFINQYGEIQHKWEVPTDKTGDTITVTIAKTIDSKLDELQKPKHIIKYIGMGAPGPVDMAAGVVYETVNLGWKNYALKNHLETETGIPAVIENDANIAALGEMWKGAGDGAKDVILVTLGTGVGGGIIANGEILHGINGAGGEIGHICSIPEGGAPCNCGKTGCIETIASATGIVRIAKGKIANAKKTTRLKATEQLSARDVFEAAGENDEIALEVVDYVAKHLGLVLGNLASSLNPSKIVLGGGVSRAGELLRSKVEKTFRKCAFPRAAQAADISIAALGNDAGVIGGAWIAKNEWLKHQNCLEHHHHHH	soluble
NGHYMDQFTYAERATDWRGNNNIANSIFSQMQLEDHPIPSWVVMSPGTGGTSATIGRFIRYQKYDTKLCVVDPENSVFYDAFQSGNNELKGNTGSKIEGIGRPRVEPSFIAGVVDEMRKIPDAASIATAHWVSQLIGRKVGASTGTNLYGVLQLACEMKQRGETGSIVTLLCDSGERYLDTYYDLAWVKENIGDIQPYLTQLEVIQAKGCVEPACCGPITA	not soluble
